This note sets out measurements from patent publication JP2018158894A (dated 2018).

For this assay, the target named is T1, ヒンジ領域組換えタンパク質 (LGR6 hinge region partial protein, amino acids 446-567, with Trx-, S- and His-tags) (Homo sapiens (Human), UniProt Q9HBX8 446-567).
T1 construct: Used as immunogen and as ELISA antigen; also called LGR6のヒンジ領域部分タンパク質; hinge region recombinant protein; not shown: N-terminal Trx-, S- and His-tag from the pET32b vector; C-terminal His-tag from the pET32b vector
T1 sequence: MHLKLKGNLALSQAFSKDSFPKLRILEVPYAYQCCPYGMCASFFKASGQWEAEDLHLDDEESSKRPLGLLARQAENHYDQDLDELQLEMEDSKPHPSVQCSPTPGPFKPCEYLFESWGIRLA
Kind of assay: Ag-ELISA, hybridoma culture supernatant on coated protein.

B1: m164抗体 (anti-LGR6 mouse monoclonal antibody produced by hybridoma clone 164) (antibody, V domains shown)
VH: EVQLQQSGPELVKPGASVKISCKTSGYTFTEYTMHWVKQSHGKSLEWIGGINPYNRVSSYNQRFKGKATLTVDKSSSTAYMELRSLTSEDSAVYYCARRYDVFDSWGQGTTLTVSS
VL: DIVMSQSPSSLAVSVGEKVSMSCKSSQSLLYSSNQKNYLAWYQQKPGQSPKLLISWASTRESGVPARFTGSGSGTDFTLTISSVRAEDLAVYYCQQHFNYPYTFGGGAKLEMK
notes: Tested as the mouse antibody from the hybridoma (culture supernatant or Protein G purified); the primers used were for mouse IgG1 CH and mouse kappa light chain; also called m164; LGR6抗体m164
B1: the binding result is on record as “binds”.
